The target in data set [1] is T1, MutS (Escherichia coli, UniProt P23909 1-853).
T1 sequence: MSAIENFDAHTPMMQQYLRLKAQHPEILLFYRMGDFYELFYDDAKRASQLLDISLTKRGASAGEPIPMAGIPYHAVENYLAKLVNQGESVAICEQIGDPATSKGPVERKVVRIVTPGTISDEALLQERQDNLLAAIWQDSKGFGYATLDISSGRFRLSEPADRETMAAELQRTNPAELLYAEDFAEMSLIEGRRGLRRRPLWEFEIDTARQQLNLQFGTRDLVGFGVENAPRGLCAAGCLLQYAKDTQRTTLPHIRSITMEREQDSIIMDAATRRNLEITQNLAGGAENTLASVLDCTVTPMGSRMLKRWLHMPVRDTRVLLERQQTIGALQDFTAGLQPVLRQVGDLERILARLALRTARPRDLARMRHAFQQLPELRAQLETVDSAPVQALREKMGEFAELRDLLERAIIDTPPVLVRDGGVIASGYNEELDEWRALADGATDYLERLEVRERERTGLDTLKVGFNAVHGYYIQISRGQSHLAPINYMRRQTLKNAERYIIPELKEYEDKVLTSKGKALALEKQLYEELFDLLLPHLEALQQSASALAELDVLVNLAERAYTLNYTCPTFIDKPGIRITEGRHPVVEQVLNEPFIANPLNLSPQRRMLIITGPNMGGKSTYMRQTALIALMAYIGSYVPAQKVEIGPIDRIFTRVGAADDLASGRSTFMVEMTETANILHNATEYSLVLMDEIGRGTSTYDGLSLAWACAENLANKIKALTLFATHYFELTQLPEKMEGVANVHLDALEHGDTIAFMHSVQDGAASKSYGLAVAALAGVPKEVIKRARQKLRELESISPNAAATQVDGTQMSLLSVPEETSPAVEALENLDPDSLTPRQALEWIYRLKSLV
The experiment in a line: competition.

For data set [2], the target named is T1, MutS. The experiment in a line: competition. This is another data set of the same source.
The target of data set [3] is T1, MutS. The experiment in a line: FRET equilibrium titration.
Data set [4] addresses T1, MutS. The experiment in a line: stopped-flow FRET kinetics.
For data set [5], the target named is T1, MutS. Nature of the data set: stopped-flow FRET kinetics. This is another data set of the same source.
In data set [6] the target is T1, MutS. The experiment in a line: FRET equilibrium titration. This is another data set of the same source.
The target in data set [7] is T1, MutS. The experiment in a line: competition. The source holds these as a separate data set.
Data set [8] concerns the molecule itself. The experiment in a line: other fluorescence titration.
Data set [9] concerns the molecule itself. Nature of the data set: other fluorescence titration. The source holds these as a separate data set.

Like-named read-outs stand apart in the source and are kept apart here.

The term Kd denotes the equilibrium constant for the complex coming apart. A low value points to tighter binding. One may read the IC50 as the concentration that gives 50% inhibition. The molecule AACTGCCAGGCACCAGTGTCAGCGTCGTAT (ssDNA) [30-ssDNA] showed a dissociation constant Kd in the data set with MutS [1] of 6500 nM. Also, the 50% inhibitory concentration (IC50) with MutS [2] was around 6200 nM.

B1: 30-AA (dsDNA)
DNA 1: AACTGCCAAGCACCAGTGTCAGCGTCGTAT
DNA 2: ATACGACGCTGACACTGGTGCATGGCAGTT
For the molecule B1, the Kd with MutS [3] turned out to be 214 nM; with MutS [4], 63 nM; with MutS [5], 153 nM; in the data set with MutS [6] it was 108 nM.

B2: 30-AG (dsDNA)
DNA 1: AACTGCCAAGCACCAGTGTCAGCGTCGTAT
DNA 2: ATACGACGCTGACACTGGTGCGTGGCAGTT
Consider B2, for which the dissociation constant Kd with MutS [3] came to 319 nM; with MutS [6], 251 nM.

B3: 30-CC (dsDNA)
DNA 1: AACTGCCACGCACCAGTGTCAGCGTCGTAT
DNA 2: ATACGACGCTGACACTGGTGCCTGGCAGTT
Consider B3, for which the figures for the Kd in the data set with MutS [3] and in the data set with MutS [6] were 300 nM and 410 nM, respectively.

B4: 30-GC (30-bp homoduplex) (dsDNA)
DNA 1: AACTGCCAGGCACCAGTGTCAGCGTCGTAT
DNA 2: ATACGACGCTGACACTGGTGCCTGGCAGTT
For B4, the Kd with MutS [1] stood at 23100 nM; in the data set with MutS [7], 30500 nM.

B5: 90-bp homoduplex (dsDNA)
DNA 1: CGCAGTGCTAAGACGTACCATGCAACCGTAGATTCTAACTGCCAGGCACCAGTGTCAGCGTCGTATAGTCGTGTATAGATCGTTATCTGC
DNA 2: GCAGATAACGATCTATACACGACTATACGACGCTGACACTGGTGCCTGGCAGTTAGAATCTACGGTTGCATGGTACGTCTTAGCACTGCG
B5 returned an equilibrium dissociation constant (Kd) in the data set with MutS [1] of around 3700 nM. Also, in the data set with MutS [2], the concentration for half-maximal inhibition (IC50) was around 3600 nM.

B6: 30-CT (dsDNA)
DNA 1: AACTGCCACGCACCAGTGTCAGCGTCGTAT
DNA 2: ATACGACGCTGACACTGGTGCTTGGCAGTT
With B6, the Kd is 324 nM in the data set with MutS [3] and 331 nM with MutS [6].

B7: 30-TG (dsDNA)
DNA 1: AACTGCCATGCACCAGTGTCAGCGTCGTAT
DNA 2: ATACGACGCTGACACTGGTGCGTGGCAGTT
With B7, the Kd in the data set with MutS [3] worked out at 80 nM; with MutS [6] it was 70 nM.

B8: E. coli His6-MutS (natural protein, UniProt P23909 1-853, looked up)
chain: MSAIENFDAHTPMMQQYLRLKAQHPEILLFYRMGDFYELFYDDAKRASQLLDISLTKRGASAGEPIPMAGIPYHAVENYLAKLVNQGESVAICEQIGDPATSKGPVERKVVRIVTPGTISDEALLQERQDNLLAAIWQDSKGFGYATLDISSGRFRLSEPADRETMAAELQRTNPAELLYAEDFAEMSLIEGRRGLRRRPLWEFEIDTARQQLNLQFGTRDLVGFGVENAPRGLCAAGCLLQYAKDTQRTTLPHIRSITMEREQDSIIMDAATRRNLEITQNLAGGAENTLASVLDCTVTPMGSRMLKRWLHMPVRDTRVLLERQQTIGALQDFTAGLQPVLRQVGDLERILARLALRTARPRDLARMRHAFQQLPELRAQLETVDSAPVQALREKMGEFAELRDLLERAIIDTPPVLVRDGGVIASGYNEELDEWRALADGATDYLERLEVRERERTGLDTLKVGFNAVHGYYIQISRGQSHLAPINYMRRQTLKNAERYIIPELKEYEDKVLTSKGKALALEKQLYEELFDLLLPHLEALQQSASALAELDVLVNLAERAYTLNYTCPTFIDKPGIRITEGRHPVVEQVLNEPFIANPLNLSPQRRMLIITGPNMGGKSTYMRQTALIALMAYIGSYVPAQKVEIGPIDRIFTRVGAADDLASGRSTFMVEMTETANILHNATEYSLVLMDEIGRGTSTYDGLSLAWACAENLANKIKALTLFATHYFELTQLPEKMEGVANVHLDALEHGDTIAFMHSVQDGAASKSYGLAVAALAGVPKEVIKRARQKLRELESISPNAAATQVDGTQMSLLSVPEETSPAVEALENLDPDSLTPRQALEWIYRLKSLV
With B8, the “stoichiometry N” value in data set [8] was 3.58 MutS monomers per heteroduplex; in data set [9], 3.7 MutS monomers per heteroduplex.

B9: E. coli His6-mutS-A842E (natural protein, UniProt P23909 1-853, looked up)
chain: MSAIENFDAHTPMMQQYLRLKAQHPEILLFYRMGDFYELFYDDAKRASQLLDISLTKRGASAGEPIPMAGIPYHAVENYLAKLVNQGESVAICEQIGDPATSKGPVERKVVRIVTPGTISDEALLQERQDNLLAAIWQDSKGFGYATLDISSGRFRLSEPADRETMAAELQRTNPAELLYAEDFAEMSLIEGRRGLRRRPLWEFEIDTARQQLNLQFGTRDLVGFGVENAPRGLCAAGCLLQYAKDTQRTTLPHIRSITMEREQDSIIMDAATRRNLEITQNLAGGAENTLASVLDCTVTPMGSRMLKRWLHMPVRDTRVLLERQQTIGALQDFTAGLQPVLRQVGDLERILARLALRTARPRDLARMRHAFQQLPELRAQLETVDSAPVQALREKMGEFAELRDLLERAIIDTPPVLVRDGGVIASGYNEELDEWRALADGATDYLERLEVRERERTGLDTLKVGFNAVHGYYIQISRGQSHLAPINYMRRQTLKNAERYIIPELKEYEDKVLTSKGKALALEKQLYEELFDLLLPHLEALQQSASALAELDVLVNLAERAYTLNYTCPTFIDKPGIRITEGRHPVVEQVLNEPFIANPLNLSPQRRMLIITGPNMGGKSTYMRQTALIALMAYIGSYVPAQKVEIGPIDRIFTRVGAADDLASGRSTFMVEMTETANILHNATEYSLVLMDEIGRGTSTYDGLSLAWACAENLANKIKALTLFATHYFELTQLPEKMEGVANVHLDALEHGDTIAFMHSVQDGAASKSYGLAVAALAGVPKEVIKRARQKLRELESISPNAAATQVDGTQMSLLSVPEETSPAVEALENLDPDSLTPRQELEWIYRLKSLV
In the case of B9, the “stoichiometry N” value was 2.27 MutS monomers per heteroduplex in data set [8] and 2.21 MutS monomers per heteroduplex in data set [9].

B10: 30-TT (dsDNA)
DNA 1: AACTGCCATGCACCAGTGTCAGCGTCGTAT
DNA 2: ATACGACGCTGACACTGGTGCTTGGCAGTT
For B10, the Kd with MutS [3] was found to be 291 nM; in the data set with MutS [6], 321 nM.

B11: 30-AC (dsDNA)
DNA 1: AACTGCCAAGCACCAGTGTCAGCGTCGTAT
DNA 2: ATACGACGCTGACACTGGTGCCTGGCAGTT
On to B11, for which the dissociation constant (Kd) was found to be 154 nM with MutS [3] and 97 nM in the data set with MutS [6].

B12: 30-2ΔT (dsDNA)
DNA 1: AACTGCCAGGCACCAGTGTCAGCGTCGTAT
DNA 2: ATACGACGCTGACACTGGTGCCTTTGGCAGTT
Regarding B12, the Kd with MutS [3] worked out at 89 nM; with MutS [6] it was 74 nM.

B13: 30-GG (dsDNA)
DNA 1: AACTGCCAGGCACCAGTGTCAGCGTCGTAT
DNA 2: ATACGACGCTGACACTGGTGCGTGGCAGTT
Take B13: the values for the dissociation constant (Kd) with MutS [3] and in the data set with MutS [6] were 168 nM and 137 nM, respectively.

The record behind these values is publication PMC2666446 (Journal of molecular biology, 2008).
